Results: US9394352B2, “Immunogenic POTE peptides and methods of use” (The United States of America, as represented by the …, priority 2010, dated 2016)
Entries after “also recorded” stand apart in the source; their conditions may differ.

Legend:
[1] = system: IFN-γ secreting spleen cells; assay: ex vivo IFN-γ ELISPOT assay on splenocytes of peptide-immunized AAD mice; format: in vivo; conditions: for IFN-γ response (ELISPOT spots) on stimulation with the immunizing peptide: AAD mice immunized s.c., splenocytes pooled from three mice two weeks after boost
Experimental: (§1) FIGS. 3A and 3B are graphs showing immunogenicity of the wild type and enhanced POTE 252 epitopes in AAD mice. AAD mice were immunized subcutaneously with a mixture of peptide and cytokines in adjuvant as described in Example 1. (FIG. 3A) Two weeks after the second boost, splenocytes pooled from three mice were restimulated with splenocytes of naïve AAD mice pulsed with 1.0 μM of each peptide at different effector to target (E/T) ratios. Cells were cultured in anti-mouse IFN-γ antibody coated ELISPOT™ plates. After overnight culture, biotinylated anti-mouse IFN-γ antibodies were added to each well. ELISPOT™ substrates were added to develop the color and spots were counted by an ELISPOT™ reader (AID ELISPOT™ reader system). Figures show numbers of spots per million cells. (FIG. 3B) CTL cross-reactivity on each peptide. Two weeks after the second boost, pooled spleen cells from three mice were restimulated with irradiated splenocytes pulsed with 1.0 μM of peptide for 7 days. In a 4-hour ^51Cr release assay, CIR.AAD cells were pulsed with 1.0 μM of peptide and labeled with ^51Cr. After washing three times, target cells were mixed with different numbers of effector cells and then cultured for 4 hours before harvesting.
(§2) FIGS. 4A-4D are graphs showing immunogenicity of the wild type and enhanced POTE 553 epitopes in AAD mice. AAD mice were immunized subcutaneously with a mixture of peptide and cytokines in adjuvant. (FIGS. 4A and 4B) Two weeks after the second boost, splenocytes pooled from three mice were restimulated with splenocytes of naïve AAD mice pulsed with 10 nM to 1.0 μM of each peptide at different E/T ratios. Cells were cultured in anti-mouse IFN-γ antibody coated ELISPOT™ plates. After overnight culture, biotinylated anti-mouse IFN-γ antibodies were added to each well. ELISPOT™ substrates were added to develop color and spots were counted by an ELISPOT™ reader (AID ELISPOT™ reader system). Figures show numbers of spots per million cells. (FIGS. 4C and 4D) CTL cross-reactivity on each peptide. Two weeks after the second boost, pooled spleen cells from three mice were restimulated with irradiated splenocytes pulsed with 1.0 μM of peptide for 7 days. In a 4-hour ^51Cr release assay, CIR.AAD cells were pulsed with 1.0 μM of peptide and labeled with ^51Cr. After washing three times, target cells were mixed with different numbers of effector cells and then cultured for 4 hours before harvesting.
(§3) FIGS. 5A and 5B are graphs showing immunogenicity of the POTE 272 epitope in AAD mice. AAD mice were immunized subcutaneously with a mixture of peptide and cytokines in adjuvant. (FIG. 5A) Two weeks after the second boost, splenocytes pooled from three mice were restimulated with splenocytes of naïve AAD mice pulsed with 1.0 μM POTE 272 peptide at different E/T ratios. Cells were cultured in anti-mouse IFN-γ antibody coated ELISPOT™ plates. After overnight culture, biotinylated anti-mouse IFN-γ antibodies were added in each well. ELISPOT™ substrates were added to develop color and spots were counted by an ELISPOT™ reader (AID ELISPOT™ reader system). Figures show numbers of spots per million cells. (FIG. 5B) CTL reactivity on POTE 272 peptide. Two weeks after the second boost, pooled spleen cells from three mice were restimulated with irradiated splenocytes pulsed with 1.0 μM POTE 272 peptide for 7 days. In a 4-hour ^51Cr release assay, CIR.AAD cells were pulsed with 1.0 μM POTE 272 peptide and labeled with ^51Cr. After washing three times, target cells were mixed with different numbers of effector cells and then cultured for 4 hours before harvesting.
(§4) FIGS. 6A and 6B are graphs showing immunogenicity of the wild type and enhanced POTE 323 epitopes in AAD mice. AAD mice were immunized subcutaneously with a mixture of peptide and cytokines in adjuvant. (FIG. 6A) Two weeks after the second boost, splenocytes pooled from three mice were restimulated with splenocytes of naïve AAD mice pulsed with 1.0 μM of each peptide at different E/T ratios. […]

HLA-A2 molecule = target: T1, HLA-A2 molecule (Homo sapiens, UniProt P04439, D140Y/D185E/D98H/E176V/E277Q/G131W/G231S/I119V/I121R/I166T/I218V/L300P/L318F/N151K/N90K/P208A/P217A/Q86G/Q94H/R138H/R169H/T345S); assay: T2 binding assay (HLA-A2 up-regulation on TAP-deficient T2 cells); conditions: for binding affinity for the HLA-A2 molecule (in words): T2 binding assay; for FI0.5: peptide concentration that increases HLA-A2.1 expression by 50% over no peptide
T1 construct: The T2 cell line is deficient for TAP1 and TAP2 transporter proteins and expresses low levels of HLA-A2; endogenous in cells; host or cells: T2 cell line (TAP1/TAP2-deficient)
Experimental: FIG. 1 is a graph showing binding affinity of POTE peptides to HLA-A2 molecules. Peptides were dissolved in DMSO in double-distilled water and different concentrations of peptides were added into the culture of TAP-deficient T2 cells. After overnight culture of the cells in medium supplemented with β2-microglobulin, cells were stained with anti-HLA-A2. HLA-A2 expression was quantified as fluorescence index (FI) according to the following formula: FI=[(mean fluorescence intensity with peptide−mean fluorescence intensity without peptide)/mean fluorescence intensity without peptide]. Background fluorescence without BB7.2 was subtracted for each individual value. To compare the different peptides, FI0.5 (the peptide concentration that increases HLA-A2.1 expression by 50% over no peptide control background) was calculated from the titration curve for each peptide.
FIGS. 2A-2C are graphs showing binding affinity of substituted POTE peptides to HLA-A2 molecules. Shown are binding affinities of the substituted POTE 252 peptides (FIG. 2A), the substituted POTE 553 peptides (FIG. 2B) and the substituted POTE 323 peptides (FIG. 2C) to HLA-A2 molecules. Different concentrations of peptides were added into the culture of TAP-deficient T2 cells. After overnight culture of the cells in medium supplemented with β2-microglobulin, cells were stained with anti-HLA-A2 antibody.
Peptide binding capacity to the HLA-A2 molecule was measured by using the T2 cell line according to a protocol described previously (Peters et al., Bioinformatics 19(14):1765-1772, 2003). T2 cells (3×10^5 cells/well) were incubated overnight in 96-well plates with culture medium (1:1 mixture of RPMI 1640/Eagle-Hank's amino acid containing 2.5% fetal bovine serum, 100 U/ml penicillin, and 100 μg/ml streptomycin) with 10 μg/ml β2-microglobulin (Sigma) and different titrated concentrations of peptides (starting from 100 μM with 2-fold serial dilution) as shown in the figures to determine the concentration giving a 50% increasing in binding. Cells were washed once with cold HBSS containing 0.1% BSA and incubated for 30 minutes at 4° C. with anti-HLA-A2.1 BB7.2 monoclonal antibody (1:40 dilution from hybridoma supernatant). After washing, cells were stained with FITC-labeled goat anti-mouse immunoglobulin (BD, San Jose, Calif.), and the level of HLA expression was measured by flow cytometry. HLA-A2 expression was quantified as fluorescence index (FI) according to the following formula: FI=[(geometric mean fluorescence intensity with peptide-geometric mean fluorescence intensity without peptide)/geometric mean fluorescence intensity without peptide]. Background fluorescence without BB7.2 was subtracted for each individual value. To compare the different peptides, FI0.5, the peptide concentration that increases HLA-A2.1 expression by 50% over no peptide control background, was calculated from the titration curve for each peptide.

[2] = system: C1R.AAD cells pulsed with peptide; assay: 4-hour 51Cr release CTL assay after one week in vitro stimulation; format: cell-based, human; conditions: CTLs from immunized AAD mice, restimulated 7 days with 1.0 μM peptide; targets pulsed with 1.0 μM peptide
Experimental: as §1, §2, §3, §4

[3] = substituted peptides and their wild types, Table 2 / FIGS. 2A-2C
[4] = wild-type peptides, Table 1 / FIG. 1

LLLEQNVDV [POTE 323-331, unmodified 9-mer peptide, residues 323-331 of human POTE]
IFN-γ response (ELISPOT spots) on stimulation with the immunizing peptide [1]: induced some IFN-γ responses after stimulation with the identical peptide
IFN-γ response over background level ([1]; AAD mice, ELISPOT): less than 2 fold
binding affinity for the HLA-A2 molecule (in words) (HLA-A2 molecule): intermediate binders; also recorded: strongest binding affinity
FI0.5 (HLA-A2 molecule; [3]): 0.3 µM
FI0.5 (HLA-A2 molecule; [4]): ~0.8 µM
CTL lysis of peptide-pulsed target cells [2]: did not lyse target cells pulsed with POTE 323

KILEEIASV [POTE-553-7A, modified POTE 553 peptide, alanine at position 7]
FI0.5 (HLA-A2 molecule; [3]): 0.2 µM

VLMLLEHGA [POTE 222-230]
binding affinity for the HLA-A2 molecule (in words) (HLA-A2 molecule): weak binder
FI0.5 (HLA-A2 molecule; [4]): approximately 42.4 μM

YLLEQNVDV [POTE 323-1Y, modified POTE 323 peptide, tyrosine at position 1]
FI0.5 (HLA-A2 molecule; [3]): 0.25 µM

KLMAKAALL [POTE 252-7A, modified POTE 252 peptide, alanine at position 7]
FI0.5 (HLA-A2 molecule; [3]): 4 µM

KILEEIESV [POTE 553-561, unmodified 9-mer peptide, residues 553-561 of human POTE]
IFN-γ response (ELISPOT spots) on stimulation with the immunizing peptide [1]: did not induce any significant IFN-γ responses
binding affinity for the HLA-A2 molecule (in words) (HLA-A2 molecule): strongest HLA-A2 binding affinity; also recorded: intermediate binders
FI0.5 (HLA-A2 molecule; [3]): 2.6 µM
FI0.5 (HLA-A2 molecule; [4]): ~5.6 µM
CTL lysis of peptide-pulsed target cells [2]: not any significant detectable target cell lysis

LLLEQNADV [POTE 323-7A, modified POTE 323 peptide, alanine at position 7]
FI0.5 (HLA-A2 molecule; [3]): 2.78 µM

KIFEEIESV [POTE 553-3F, modified POTE 553 peptide, phenylalanine at position 3]
FI0.5 (HLA-A2 molecule; [3]): 0.3 µM

YLMAKALLL [POTE 252-1Y, modified POTE 252 peptide, tyrosine at position 1]
IFN-γ response (ELISPOT spots) on stimulation with the immunizing peptide [1]: no significant IFN-γ responses were detected
FI0.5 (HLA-A2 molecule; [3]): 0.9 µM
CTL lysis of peptide-pulsed target cells [2]: not detectable

KLFAKALLL [POTE 252-3F, modified POTE 252 peptide, phenylalanine at position 3]
FI0.5 (HLA-A2 molecule; [3]): 1.5 µM

KLAAKALLL [POTE 252-3A, modified POTE 252 peptide, alanine at position 3]
FI0.5 (HLA-A2 molecule; [3]): 16.9 µM

KLLEEIESV [POTE 553-2L, modified POTE 553 peptide, leucine at position 2]
IFN-γ ELISPOT cross-reactive response to the wild type peptide ([1]; AAD mice immunized s.c. with the enhanced peptide): no cross-reactive response to wild type peptide was detected
IFN-γ response (ELISPOT spots) on stimulation with the immunizing peptide [1]: induced some extent of IFN-γ responses only after stimulation with the same peptide
FI0.5 (HLA-A2 molecule; [3]): 0.1 µM
CTL lysis of peptide-pulsed target cells [2]: did not lyse target cells pulsed with POTE 553-2L

LLAEQNVDV [POTE 323-3A, modified POTE 323 peptide, alanine at position 3]
FI0.5 (HLA-A2 molecule; [3]): 0.4 µM

GLTPLLLGV [POTE 272-280, unmodified 9-mer peptide, residues 272-280 of human POTE]
IFN-γ response (ELISPOT spots) on stimulation with the immunizing peptide [1]: induced significant IFN-γ responses
binding affinity for the HLA-A2 molecule (in words) (HLA-A2 molecule): strongest HLA-A2 binding affinity
FI0.5 (HLA-A2 molecule; [4]): ~0.9 µM
CTL lysis of peptide-pulsed target cells [2]: lysed target cells pulsed with POTE 272
